# Measurements taken from the supplement of paper PMC10567573.
# ± gives the standard deviation.
# Experiment: protein stability index of a GFP-peptide fusion (GPS, HEK-293T) (PSI 1-6); higher = more stable
# [1] = treatment: DMSO, c terminus: a fixed tail appended
# [2] = treatment: MLN4924 1 uM, 8 h, c terminus: a fixed tail appended
# 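Further: 24-mer peptide tiles fused after GFP, lentivirally expressed, FACS-sorted into six equal bins by GFP/DsRed ratio, decoded by Illumina sequencing, PSI is the read-weighted mean bin number.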
Sequence,protein stability index [1],protein stability index [2],"protein stability index (treatment: DMSO, c terminus: native)","protein stability index (treatment: MLN4924 1 uM, 8 h, c terminus: native)"
AAAGLHASPMSADRVVAFMDHIRI [NR2F2],2.25 ± 0.4,2.26 ± 0.34,–,–
AAARPSSCRRKQEDDRDGLLAERE [TMEM106C],5.18 ± 0.25,5.3 ± 0.34,–,–
AASEAGRAMHLMKKREKQREQMEQ [FAM50A],5.05 ± 0.25,4.87 ± 0.17,–,–
AAVPGTQLSPSPTPASQSPKKPPA [SNAP91],5.44 ± 0.25,5.37 ± 0.33,–,–
ACKSLQTRQNGIQTNKPALRAVRQ [STX5],4.07 ± 0.17,3.95 ± 0.2,–,–
ACLIVMFLPEKKDTGVFAVVNSHS [SLC22A15],3.22 ± 0.56,2.12 ± 0.19,–,–
ACSEGDVNAVRKLLIEGRSVNEHT [ANKRD17],4.22 ± 0.45,4.64 ± 0.11,–,–
AEEAESHFSSIPDAFWWAVVSMTT [KCNA1],2.11 ± 0.31,2.1 ± 0.24,–,–
AEFMRNFQKGQVTRDGFKLVMASL [HMOX1],2.33 ± 0.75,2.26 ± 0.16,–,–
AEHNLVLFRKDVDDATLSRLELER [PRPH],4.45 ± 0.19,4.51 ± 0.16,–,–
AEHWKHKKEESGRERKKNWGGQED [PBXIP1],5.24 ± 0.37,4.96 ± 0.4,–,–
AEPAMPGRLYVHPDSPATGAHWMR [TBX5],3.5 ± 0.36,3.44 ± 0.21,–,–
AFADRDQSERQRHESQQLATETQA [TEKT4],5.11 ± 0.16,5.36 ± 0.31,–,–
AFDYIKQRRSMVSPNFGFMGQLLQ [DUSP5],2.14 ± 0.25,2.27 ± 0.39,–,–
AFGAPIGGTLFSLEEGSSFWNQGL [CLCN6],2.47 ± 0.27,2.47 ± 0.35,–,–
AGAGWWVGAAYASLRRRGASAAAR [TRIM14],2.88 ± 0.22,–,–,–
AGGQTRLQASDRYRDLAGGTGRSA [FCHSD1],4.25 ± 0.41,4.35 ± 0.28,–,–
AGLGPGSRRPLDEAVAGAEGREAP [DENND6A],5.39 ± 0.23,5.04 ± 0.39,–,–
AGRAAAPELSYRVCVGSDVTSIHK [MYORG],3.32 ± 0.17,3.35 ± 0.24,–,–
AGRQSVSGRKNSTSKDLVTLGASS [C6orf223],4.4 ± 0.16,4.49 ± 0.13,–,–
AGSKVKDMAGDWHWALRVTPGLGV [SPNS1],2.07 ± 0.28,2.1 ± 0.26,–,–
AHEVLQELRDISSMAMEYFDEKIV [FBXO28],3.14 ± 0.19,3.26 ± 0.45,–,–

Sequence,protein stability index [1],protein stability index [2],"protein stability index (treatment: DMSO, c terminus: native)","protein stability index (treatment: MLN4924 1 uM, 8 h, c terminus: native)"
AHFSPFLYYQSQELPNGSVKEAPA [PDZK1],3.45 ± 0.13,3.33 ± 0.13,–,–
AHRGRLNIQAGINENDFYDGAWCA [CPXM2],3.34 ± 0.86,3.29 ± 0.46,–,–
AILRVIRLVRVFRIFKLSRHSKGL [KCNA1],2.28 ± 0.36,2.46 ± 0.24,–,–
AIPITELTKSQVQDKPYKCTDCGK [ZNF8],4.25 ± 0.2,4.3 ± 0.21,–,–
AIQAFLDKCSAPKIWRTPNGKTIE [IQUB],2.36 ± 0.48,2.27 ± 0.22,–,–
AISLTKCLESTKLLADLKKCGDLE [MIA2],2.64 ± 0.57,2.79 ± 0.69,–,–
AKLVPSEREASPSNSCQDSTDTES [IKZF1],5.41 ± 0.41,5.53 ± 0.24,–,–
AKPRATWTLKLDGNLQLDCLAQGW [RTP4],2.17 ± 0.24,2.33 ± 0.57,–,–
AKSRAEAALEEESRQRQSRMEKGE [SMARCE1],5.55 ± 0.22,5.38 ± 0.22,–,–
ALAHCHQHGLVLRDLKLCRFVFAD [TRIB3],2.44 ± 0.43,2.23 ± 0.23,–,–
ALARLGTVTVISPLELMRTKLQAQ [SLC25A39],2.18 ± 0.39,2.15 ± 0.72,–,–
ALATVSLLSLVTFTFLSAKCLQGN [PCDHGC5],3.2 ± 0.29,3.16 ± 0.23,–,–
ALCVVDTIKRSSQTGEWQNIAIMT [GFOD1],2.31 ± 0.24,2.2 ± 0.14,–,–
ALFKANRLEKAVAAAYTFLQRNPK [P3H4],2.48 ± 0.27,2.12 ± 0.53,–,–
ALGWAPAAPPPLKDDPEGDRDGCV [ZBED3],5.34 ± 0.17,5.54 ± 0.3,–,–
ALHLAARNGHLATVKLLVEEKADV [RIPK4],2.85 ± 0.17,3.06 ± 0.3,–,–
ALMHELSNDGARRQFEFYLEEMIL [BTBD10],2.24 ± 0.037,2.36 ± 0.69,–,–
ALNFMKGCLKMNPDDRLTCSQLLE [CDKL4],2.32 ± 0.18,2.55 ± 0.38,–,–
ALQAAAHASVDIKDVLDFYKQWKE [SMG5],3.19 ± 0.14,3.37 ± 0.31,–,–
ALSSFREESRFCDAHLVLDGEEIP [GAN],4.51 ± 0.18,4.59 ± 0.14,–,–
ANHVFFLLYLLHILLLDGAAWLTL [FADS1],3.23 ± 0.61,3.39 ± 0.6,–,–
ANYIDGYRKQNAYIATQGSLPETF [PTPRD],2.94 ± 0.25,3.13 ± 0.45,–,–

Sequence,protein stability index [1],protein stability index [2],"protein stability index (treatment: DMSO, c terminus: native)","protein stability index (treatment: MLN4924 1 uM, 8 h, c terminus: native)"
APGVDLSRILNEMRDQYEQMAEKN [KRT16],4.27 ± 0.35,4.42 ± 0.16,–,–
APLSSRKHVLYVEHRHLNPDTELK [TCF25],3.72 ± 0.35,3.87 ± 0.51,–,–
APWWFWLSLTGVSLAGALGVKFVG [POMT2],2.48 ± 0.23,2.27 ± 0.15,–,–
AQAGTPAPTKPHDYRQEQPETFWI [SPAG8],3.54 ± 0.29,3.59 ± 0.29,–,–
AREGAGLVVASGVIYCLGGYDGLN [KLHL12],2.81 ± 0.59,2.39 ± 0.51,–,–
AREGSSEPWLPLTDGRSPRRSRDP [PLEKHN1],5.17 ± 0.43,5.1 ± 0.098,–,–
ARNGNAEEVRQLLETMARNEVIAD [OSBPL1A],4.11 ± 0.061,4.07 ± 0.32,–,–
ASGSVLRLVDAVLGAEIRNGMAII [HDAC6],2.91 ± 0.56,2.55 ± 0.58,–,–
ASLQASIFSGAASLGYGTNVAATG [APBB1IP],2.95 ± 0.27,2.85 ± 0.33,–,–
ASLSNQECQLYPRRSQQQQVPVVD [SNURF],4.57 ± 0.14,4.46 ± 0.24,–,–
ASTEADKRLSRFDIEMSMRGDIFE [NLN],4.02 ± 0.57,4.14 ± 0.27,–,–
ASVDYIRKLQKEQQRSKDLESRQR [TFE3],4.06 ± 0.24,4.18 ± 0.13,–,–
ATKSHVDKVIMKLGKTNAKAVSEM [DYNC2LI1],3.57 ± 0.21,3.51 ± 0.3,–,–
ATTAATAAATTTTTTSAATATTAP [SNAP91],5.36 ± 0.22,5.52 ± 0.22,–,–
AVINWVKHAKKEREESLPNLLQYV [KLHL12],2.02 ± 0.32,2.49 ± 0.54,–,–
AVIYLGYCFCGWIVLGPYHVKFRS [MCOLN1],3.08 ± 1.1,2.86 ± 0.52,–,–
AVNQKIDRESLCGASTSCLLPVQV [PCDHGC5],2.99 ± 0.13,3.26 ± 0.65,–,–
AYTRYLGDLSGGQVLKKIAQKALD [HMOX1],2.29 ± 0.19,2.23 ± 0.34,–,–
CAPCPRRSEPVVQCQYPSGAEAG [IRX6],–,–,2.67 ± 0.7,2.3 ± 0.41
CASPVTGPGSKRDAHFCAVCSDYA [ESR2],3.08 ± 0.22,3.16 ± 0.29,–,–
CEYNFVSPSKSFWTRITCAEEGWS [CFHR2],2.31 ± 0.35,2.05 ± 0.089,–,–
